In PMC13260207:

What was measured:
[1] = target: recombinant PI4KIIα (lab-made) (human) (UniProt Q9BTU6); assay: MST; fluorescently labelled PI4KIIα (5 nM) constant, unlabelled ligand protein titrated; Tris-based MST buffer; Monolith NT.115 pico; no PI
[2] = target: recombinant PI4KIIα (lab-made) (human) (UniProt Q9BTU6); assay: MST; fluorescently labelled PI4KIIα (5 nM) mixed with 1 μM PI (micelles) before the ligand protein, unlabelled ligand titrated; Tris-based MST buffer; Monolith NT.115 pico

Sequence of UniProt Q9BTU6 (Q9BTU6 whole entry): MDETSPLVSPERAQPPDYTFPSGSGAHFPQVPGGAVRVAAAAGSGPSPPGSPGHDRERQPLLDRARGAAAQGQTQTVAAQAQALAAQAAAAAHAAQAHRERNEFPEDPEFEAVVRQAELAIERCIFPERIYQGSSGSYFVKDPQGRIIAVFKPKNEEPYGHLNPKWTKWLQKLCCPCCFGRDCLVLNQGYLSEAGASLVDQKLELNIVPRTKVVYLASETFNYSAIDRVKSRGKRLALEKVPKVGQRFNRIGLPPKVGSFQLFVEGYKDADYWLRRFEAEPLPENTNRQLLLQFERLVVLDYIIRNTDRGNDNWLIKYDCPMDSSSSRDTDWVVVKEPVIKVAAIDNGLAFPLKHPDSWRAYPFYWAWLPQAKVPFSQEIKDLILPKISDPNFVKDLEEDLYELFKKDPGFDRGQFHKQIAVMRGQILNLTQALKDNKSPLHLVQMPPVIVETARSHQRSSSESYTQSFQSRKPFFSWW

| Substance | Kd [1] [nM] | Kd [2] [nM] |
| --- | --- | --- |
| recombinant PITPβ (#LS-C794864, LSBio) (from UniProt P48739 1-271) (natural protein) | 263 | 113 |
| recombinant PITPα (#ab101666, Abcam) (from UniProt Q00169 1-270) (natural protein) | 189 | – |
